Results reported in US20240173442A1, “COMBINATION THERAPY” (Hoffmann-La Roche Inc., priority 2021, published 2024).

Tests used:
[1] = tested on: SC BxPC3 tumors; test: Protocol 189: biodistribution of 212Pb-DOTAM after bi-paratopic (T84.66 and CH1A1A) CEA-split-DOTAM-VH/VL pairs; type: in vivo, SCID mice; conditions: 6 hours after injection
Description: This bi-paratopic combination precludes formation of the full Pb-DOTAM binder on soluble CEA that only expresses one of the two epitopes (e.g. T84.66), thereby mitigating potential adverse effects thereof, such as increased circulating radioactivity and associated radiation-induced toxicity, and decreased efficacy from competition with off-tumor targets.
(§1) The in vivo distribution of ^212Pb-DOTAM was assessed 6 hours after the radioactive injection.
(§2) Solid xenografts were established in each SCID mouse on study day 0 by SC injection of 5×10^6 cells (passage 31) in RPMI/Matrigel into the right flank. Fourteen days after tumor cell injection, mice were sorted into experimental groups with an average tumor volume of 343 mm^3. The ^212Pb-DOTAM was injected on day 22 after inoculation; the average tumor volume had reached 557 mm^3 on day 21.
All mice were sacrificed and necropsied 6 hours after injection of ^212Pb-DOTAM, and the following organs and tissues harvested for measurement of radioactive content: blood, skin, spleen, pancreas, kidneys, liver, muscle, tail, and tumor.

[2] = tested on: SC BxPC3 tumors; test: Protocol 185: biodistribution of 212Pb-DOTAM after CEA-split-DOTAM-VH/VL targeting T84.66 or CH1A1A; type: in vivo, SCID mice; conditions: 6 hours after injection
Description: as §1
as §2, with “27)” for “31)”, “Twenty-two” for “Fourteen”, “224” for “343”, “28” for “22”, “inoculation, at which point” for “inoculation;”, “385 mm^3.” for “557 mm^3 on day 21.”
All mice were sacrificed and necropsied 6 hours after injection of ^212Pb-DOTAM, and the following organs and tissues harvested for measurement of radioactive content: blood, skin, spleen, pancreas, kidneys, liver, muscle, tail, and tumor. Collected tumors were split in two pieces: one was measured for radioactive content, and the other put in a cryomold containing Tissue-Tek® optimum cutting temperature (OCT) embedding medium, and put on dry ice for rapid freezing. Frozen samples in OCT were maintained at −80° C. before cryosectioning, immunofluorescence staining, and analysis using a Zeiss Axio Scope.A1 modular microscope.

B1: CH1A1A: CEA-split-DOTAM-VH/VL pair targeting CH1A1A: P1AF0171 (VH-AST) plus P1AD8592 (VL) (antibody, V domains shown)
VH: QVQLVQSGAEVKKPGASVKVSCKASGYTFTEFGMNWVRQAPGQGLEWMGWINTKTGEATYVEEFKGRVTFTTDTSTSTAYMELRSLRSDDTAVYYCARWDFAYYVEAMDYWGQGTTVTVSS
VL: DIQMTQSPSSLSASVGDRVTITCKASAAVGTYVAWYQQKPGKAPKLLIYSASYRKRGVPSRFSGSGSGTDFTLTISSLQPEDFATYYCHQYYTYPLFTFGQGTKLEIK
modifications: split DOTAM-binding domains and constant regions lack entries
In the case of B1, the “tumor accumulation of ^212Pb” value [1] is reported as 37 % ID/g and the “tumor accumulation of ^212Pb” value [2] is reported as 40 % ID/g.
